B1: SMOC2 (parent)
chain: QKPLCASDGRTFLSRCEFQRAKCK

Variants of: B1
Assay: protein stability index of a GFP-peptide fusion (GPS, HEK-293T) (PSI 1-6); higher = more stable
Details: c terminus: a fixed tail appended
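Also: lentivirally expressed fusions sorted by FACS into six bins by GFP to DsRed ratio, PSI derived from sequencing read proportions per bin multiplied by bin number.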

Protein stability index, by site and new letter:
G9: Q 2.64, Y 1.9, D 3.99, N 2.82, C 2.35, K 2.14, R 2.94, H 2.75, L 2.68, M 3.19, V 2.93, I 1.9, E 3.48, W 2.82, P 2.45, F 2.2, A 2.58, S 3.42, T 2.67
D8: M 2.63, K 2.56, R 3.23, Y 2.67, P 2.75, H 2.52, L 1.97, C 1.63, N 2.77, A 2.37, I 2.35, T 2.9, E 3.66, F 1.94, Q 1.93, V 2.76
A6: H 3.61, G 2.38, C 2.57, F 1.89, Q 3.21, K 2.82, P 3.32, N 2.63, R 2.74, L 2.47, W 2.69, S 3.44, T 2.42, D 2.9, V 3.69, M 2.48, Y 2.71, I 2.74
R10: K 2.96, D 3.76, Y 2.91, S 3.84, V 4.03, H 2.71, I 2.53, M 2.72, P 3.11, L 3.04, F 2.95, G 3.17, A 3.24, E 3.27, T 3.54, Q 3.33, W 2.58, N 1.99, C 2.89
L13: E 3.72, I 2.82, C 3.51, A 1.9, V 2.29, K 3.3, N 3.78, P 3.56, H 3.31, Q 3.4, R 3.15, S 2.44, D 4.78, G 3.31, T 3.93, W 3.46
L4: V 2.52, P 2.79, S 3.35, Y 1.99, T 2.65, Q 2.81, W 2.51, R 3.25
F12: M 3.16, V 3.92, Y 2.49, Q 4.5, T 3.63, G 3.93, E 4.5, W 2.34, R 3.73, P 4, L 2.97, I 3.4, C 2.97, A 3.84, D 4.57, S 4.83, N 3.96, H 4.22
S7: F 2.8, N 3.76, V 2.59, D 3.36, C 1.82, K 3.32, Y 2.15, W 2.85, Q 2, T 2.5, P 3.45, R 2.38, I 2.31, M 1.67, L 2.82, H 2.57, E 2.86, A 2.33
C5: A 3.31, T 3.41, D 3.29, V 3.16, I 1.74, N 4.28, H 2.7, P 2.94, K 2.19, W 2.31, R 2.5, Y 2.38, Q 2.88, G 2.44, F 2.01, S 2.91
T11: Y 2.03, D 3.33, P 3.37, F 2.09, I 2.71, N 3.06, C 2.05, H 2.38, L 2.68, M 2.89, S 3.14, W 2.81, Q 3.74, R 2.52, V 2.33, A 3.12, K 4.04, G 2.6, E 3.89
